Results reported in CN107840889A (SHANGHAI JIBEI BIOLOGICAL TECH CO LTD, dated 2018).
Where a chain is given by its changes, count along the chain named. Where “and” joins values, the source holds several entries; their conditions need not be identical. Equal values may be shown once.

T1: CD123-his-biotin抗原 (Homo sapiens (Human), UniProt P26951 19-305, biotin label (site not stated))
T1 construct: Bought from SinoBiological and biotin-labelled; also called CD123-Biotin; CD123抗原; not shown: his tag
T1 sequence: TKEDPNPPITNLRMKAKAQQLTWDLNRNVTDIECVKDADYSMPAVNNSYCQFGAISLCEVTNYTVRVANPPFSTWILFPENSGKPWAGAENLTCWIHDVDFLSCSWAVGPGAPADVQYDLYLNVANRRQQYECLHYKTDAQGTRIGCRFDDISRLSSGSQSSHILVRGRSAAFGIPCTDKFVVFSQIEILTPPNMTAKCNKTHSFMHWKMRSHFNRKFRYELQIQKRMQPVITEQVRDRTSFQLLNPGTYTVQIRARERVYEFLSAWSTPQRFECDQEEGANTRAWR

B1: scFv 26292 (scFv, V domains shown)
VH: QVQLQQPGAELVRPGASVKLSCKASGYTFTSYWMNWVKQRPDQGLEWIGRIDPYDSETHYNQKFKDKAILTVDKSSSTAYMQLSSLTSEDSAVYYCARGNWDDYWGQGTTLTVSS
VL: DVQITQSPSYLAASPGETITINCRASKSISKDLAWYQEKPGKTNKLLIYSGSTLQSGIPSRFSGSGSGTDFTLTISSLEPEDFAMYYCQQHNKYPYTFGGGTKLEIK
notes: Tested as an scFv in periplasmic extract of TG1 (pCANTAB 5E vector)
B2: 2D2 (scFv, V domains shown)
VH: B1 VH with T28K, T30Q
VL: B1 VL
notes: also called 抗体2D2
B3: 4D1 (scFv, V domains shown)
VH: B1 VH with T28Q
VL: B1 VL
notes: also called 抗体4D1
B4: 6G3 (scFv, V domains shown)
VH: B1 VH
VL: B1 VL with G51S, T53R, Q55S
notes: also called 抗体6G3
B5: 4C3 (scFv, V domains shown)
VH: B1 VH with S31Q, Y54F, Q62L, K63Q
VL: B1 VL
B6: 4A6 (scFv, V domains shown)
VH: B1 VH with T30Q
VL: B1 VL
B7: 7G8 (scFv, V domains shown)
VH: B1 VH
VL: B1 VL with S50D, G51A, T53R, L54R, Q55G
notes: also called 抗体7G8
B8: 5B1 (scFv, V domains shown)
VH: B1 VH
VL: B1 VL with K93R
B9: 8A7 (scFv, V domains shown)
VH: B1 VH
VL: B1 VL with H91T, K93R
notes: 31 is used here; also called 抗体8A7
B10: 3F8 (scFv, V domains shown)
VH: B1 VH with S31Q, N100I, W101S, D102Q, Y104F
VL: B1 VL
B11: 2C5 (scFv, V domains shown)
VH: B1 VH with S31Q, G99S, N100Q, W101V, D102S
VL: B1 VL
B12: 7F1 (scFv, V domains shown)
VH: B1 VH
VL: B1 VL with H91S
notes: also called 抗体7F1
B13: 5E10 (scFv, V domains shown)
VH: B1 VH
VL: B1 VL with G51S, T53Q, L54R, Q55L
B14: 6G9 (scFv, V domains shown)
VH: B1 VH
VL: B1 VL with R24C, K27N, S30N, A34I

Molecular target: T1, CD123-his-biotin抗原
Assay: BLI (Octet RED96), CD123-Biotin on AR2G sensor, scFv periplasmic extract as analyte
Design: 响应: unit not given here

| Binder | koff | 响应 |
| --- | --- | --- |
| B1 | 0.000206 s⁻¹ and 0.00021 s⁻¹ and 0.000209 s⁻¹ and 0.000207 s⁻¹ |  |
| B2 | 0.00014 s⁻¹ | 0.145 |
| B3 | 0.000198 s⁻¹ | 0.25 |
| B4 | 0.000192 s⁻¹ | 0.425 |
| B5 | 0.000322 s⁻¹ | 0.083 |
| B6 | 0.000323 s⁻¹ | 0.106 |
| B7 | 0.000127 s⁻¹ | 0.463 |
| B8 | 0.00012 s⁻¹ | 0.422 |
| B9 | 0.000178 s⁻¹ | 0.471 |
| B10 | 0.000558 s⁻¹ | 0.207 |
| B11 | 0.000502 s⁻¹ | 0.177 |
| B12 | 2.47e-05 s⁻¹ | 0.486 |
| B13 | 0.000254 s⁻¹ | 0.24 |
| B14 | 0.000318 s⁻¹ | 0.163 |
